This is an account of results in patent US11421026B2, “Antibodies that bind human cannabinoid 1 (CB1) receptor” (BIRD ROCK BIO, Inc., priority 2015, dated 2022).

Changes are numbered by the printed parent chain.

To fix the notation:
B1: 36E12B6C2 Fab: Fab of 36E12B6C2 (antibody, V domains shown)
VH: QVQLQQSGAELVRPGSSVKISCKASGYEFSYYWMNWVKQRPGQGLQWIGQIYPGDGDTNYNGKFKGKATLTADKSSSTAYMHLTSLTSEDSAVYFCARSGGNPFAFWGQGTLVTVSA
VL: DIQMTQTSSSLSASLGDRVTFSCRASQDISNYLNWYQQKPDGTVKLLIYYTSRLHSGVTSRFRGSGSGTDYSLTISNLEQEDVATYFCQQGHTLPWSFGGGTKLEIK
B2: PA2LR3-P4C6: phage-derived CB1 binding IgG clone (antibody, V domains shown)
VH: B1 VH with Q1E, E28A, Q46E, H82Q, T84S, G100H, P103Y, A105P, F106Y
VL: DIVITQSPAIVSASLGERVTMTCTASSSVSSSYLHWYQQKPGSSPKLWIYSTSNLASGVPARFSGSGSGTSYSLTISSMEAEDAATYYCQQWSSYPLTFGAGTKLEIK
modifications: PA2LR3-P4C6 Heavy Chain Variable region; PA2LR3-P4C6 Light Chain Variable region
B3: PA2LR3-P6G7: anti-CB1 antibody; HC variable SEQ ID NO: 58, LC variable SEQ ID NO: 62 (antibody, V domains shown)
VH: EVQLQQSGAELVRPGSSVKISCKASGFAFSNYWMNWVKQRPGQGLEWIGQIYPGDGDTNFNGKFKGRAILTADISSNTAYMQLSSLTSEDSAVYFCARSHGNYFPYWGQGTLVTVSA
VL: B2 VL with I4L, V11M, Q90H, W92H, S93H, S94R, Y95S, L97P, I107L
modifications: PA2LR3-P6G7 Heavy chain variable region; PA2LR3-P6G7 Light chain variable region
B4: PA2LR3-P3A8: phage-derived CB1 antibody clone (antibody, V domains shown)
VH: B3 VH with F27Y, N31Y, F60Y, F64V, R67K, I69T, I74K, N77S, P105A
VL: B2 VL with I4M, V11M, Y95N, I107L
modifications: PA2LR3-P3A8 Heavy Chain Variable Region; PA2LR3-P3A8 Light Chain Variable Region
notes: phage-derived CB1 antibody clone
B5: PA2LR3-P4B5: anti-CB1 antibody; HC variable SEQ ID NO: 26, LC variable SEQ ID NO: 30 (antibody, V domains shown)
VH: B3 VH with F27Y, N31Y, F60Y, N61S, K63R, R67K, I69T, I74K, N77S, M81I
VL: B2 VL with I4L, T5N, V11M, Q90H, W92Y, S93H, S94R, Y95S
modifications: PA2LR3- P4B5 Heavy chain variable region; PA2LR3- P4B5 Light chain variable region
B6: PA2LR3-P3F8: phage-derived CB1 antibody clone (antibody, V domains shown)
VH: B3 VH with F27Y, F60Y, K63N, R67K, I69T, I74K, N77S
VL: B2 VL with I4L, V11M, I107L
modifications: PA2LR3-P3F8 Heavy Chain Variable Region; PA2LR3-P3F8 Light Chain Variable Region
notes: as for B4
B7: PA2LR3-P4B1: anti-CB1 antibody; HC variable SEQ ID NO: 42, LC variable SEQ ID NO: 46 (antibody, V domains shown)
VH: B3 VH
VL: B2 VL with D1Q, I4L, V11M, Q90H, W92Y, S93H, S94R, Y95S, I107L
modifications: PA2LR3-P4B1 Heavy chain variable region; PA2LR3-P4B1 Light chain variable region
B8: PA2LR3-P6B12: anti-CB1 antibody; HC variable SEQ ID NO: 50, LC variable SEQ ID NO: 54 (antibody, V domains shown)
VH: B3 VH with F27Y, N31Y, F60Y, R67K, I69T, I74K, N77S, P105A
VL: B2 VL with D1Q, I4L, V11M, Q90H, W92Y, S93H, S94R, Y95S, T98A, I107L
modifications: PA2LR3-P6B12 Heavy chain variable region; PA2LR3-P6B12 Light chain variable region
B9: PA2LR3-P4G10: phage-derived CB1 binding IgG clone (antibody, V domains shown)
VH: B3 VH with S7F, F27Y, N31Y, F60Y, R67K, I69T, I74K, N77S, P105A
VL: B2 VL with I4L, V11M, Y95N, I107L
modifications: PA2LR3-P4G10 Heavy Chain Variable region; PA2LR3-P4G10 Light Chain Variable region
B10: PA2LR3-P5E7: phage-derived CB1 antibody clone (antibody, V domains shown)
VH: B3 VH with F27Y
VL: DIVLTQSPTTMAASPGEKITITCSASSSISSNYLHWYQQKPGFSPKLLIYRTSTLASGVPARFSGSGSGTSYSLTISSMEAEDAATYYCHQYHRSPHTFGSGTKLEIK
modifications: PA2LR3-P5E7 Heavy Chain Variable region; PA2LR3-P5E7 Light Chain Variable region
notes: as for B4

In general, EC50 refers to the midpoint of the concentration-response curve. A high value points to a need for much substance.

T2 sequence (P21554 whole entry): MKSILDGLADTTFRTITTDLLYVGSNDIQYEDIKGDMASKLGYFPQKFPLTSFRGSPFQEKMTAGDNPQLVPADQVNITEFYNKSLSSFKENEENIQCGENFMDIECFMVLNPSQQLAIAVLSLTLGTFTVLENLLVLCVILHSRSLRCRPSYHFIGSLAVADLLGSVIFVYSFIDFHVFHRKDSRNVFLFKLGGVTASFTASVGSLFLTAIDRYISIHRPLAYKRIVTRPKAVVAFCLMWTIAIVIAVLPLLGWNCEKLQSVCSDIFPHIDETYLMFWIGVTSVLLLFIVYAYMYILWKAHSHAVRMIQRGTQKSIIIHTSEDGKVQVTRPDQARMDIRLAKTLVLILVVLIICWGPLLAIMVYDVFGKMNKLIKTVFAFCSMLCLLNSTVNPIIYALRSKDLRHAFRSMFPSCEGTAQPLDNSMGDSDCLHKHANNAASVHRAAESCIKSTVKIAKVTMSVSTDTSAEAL
T1 sequence (P21554 whole entry): as above

For one experiment, the system named is CB1 receptor signaling, WIN55,212 induced ERK phosphorylation in Trex-CHO CB1 receptor cells. In words: ERK activation assay (western blot). The format is cell-based, human. The conditions noted are these: 100 nM. The method, then:
Two days before the experiment, Trex-CHO CB1 receptor cells were seeded at 500,000 cells/well into 6-well plates. 1 μg/mL tetracycline was used to induce CB1 receptor expression after 24 hours. Cells were serum starved for at least two hours before the experiment. […] Cell lysates were harvested and the level of ERK activation was determined by western blot. Anti-ERK and Anti-phospho-specific ERK antibodies were obtained from Cell Signaling Inc.
Two days before the experiment, Trex-CHO CB1 receptor-expressing cells were seeded at 500,000 cells/well into 6-well plates. 1 μg/mL tetracycline was used to induce CB1 receptor expression after 24 hours. Cells were serum starved for at least two hours before the experiment. […] Cell lysates were harvested and the level of ERK activation was determined by western blot. Anti-ERK and Anti-phospho-specific ERK antibodies were obtained from Cell Signaling Inc.
For `Cc1c(C(=O)c2cccc3ccccc23)c2cccc3c2n1[C@H](CN1CCOCC1)CO3` [WIN55,212, reference compound], the “ERK activation by agonist” value was “induced ERK activation”.

A further experiment concerns the target A139 iCAPS (human CB1, ICL3 replaced with BRIL). Briefly: ELISA binding of IgG/Fab to CB1 iCAPS A139. The conditions noted are these: IgG and Fab ELISA, Table 8. The method, then: (§1) Purified IgG was tested for binding to purified CB1 receptor (CB1 Conformation Antigen Presenting System (iCAPS)) by ELISA. Non-biotinylated antigens (e.g. empty iCAPS) were coated directly on Maxisorp plates. The primary antibodies were purified IgGs with 1:3 serial dilutions, incubated on the plate for 1 hour. After 3 rounds of washing with PBST, secondary antibodies HRP goat anti-mouse IgG (Abmart) or HRP goat anti-human IgG (Sigma), depending on the species of the IgGs were added and incubated for another hour. The plates were washed three times with PBST, then developed with TMB (Biopanda). HCl was added to the plates to stop the reaction. Absorbance at 450 nm was read on Emax precision microplate reader (Molecular Devices).
(§2) IgG and Fab molecules tested were 36E12B6C2 IgG, 36E12B6C2 Fab, PA13R3-P1C4 IgG, and PA13R3-P1C4 Fab, compared to negative control BRIL binder P1F7 IgG and P1F7 Fab. For IgG antibodies, the secondary antibody used to detect binding was anti-mouse IgG-HRP; for Fabs, the secondary antibody used to detect binding was anti-human IgG-HRP.
(An ELISA detects its analyte on a solid surface through an enzyme-linked reagent.)
For B1, the EC50 amounted to 0.805 nM.

A further experiment deals with A138 iCAPS (human CB1, ICL3 replaced with protein 1 sequence). Briefly: ELISA binding of IgG/Fab to CB1 iCAPS A138. The note with it: IgG and Fab ELISA, Table 8. As to the method:
as §1, §2
B1 had an EC50 of 1.02 nM.

Another experiment concerns the target T1, human CB1 expressing TRex-CHO cells (Homo sapiens, UniProt P21554).
T1 construct: pcDNA4/TO native full length human CB1 receptor construct was transfected into tetracycline inducible system Trex-CHO and Trex-293 cells; expressed in transfected cells
Assay: not given
The format is cell-based. The note with it: forskolin stimulated TRex-CHO CB1 cells.
On to `Cc1c(C(=O)NN2CCS(=O)(=O)CC2)nn(-c2ccc(Cl)cc2Cl)c1-c1ccc(C#CCCC#N)cc1` [AM6545, reference compound], for which the “effect on cAMP levels without exogenous agonist / mechanism” value is listed as “did not affect cAMP levels”.

Another experiment has as its target T2, CB1 surface expression (CB1 TRex-CHO / TRex-293 cells) (Homo sapiens, UniProt P21554).
T2 construct: pcDNA4/TO native full length human CB1 receptor construct was transfected into tetracycline inducible system Trex-CHO and Trex-293 cells; expressed in transfected cells; tetracycline induced
Assay: not given
The format is cell-based. The conditions noted are these: 1 hour. The method, then: 5×10^5 cells/well stably expressing CB1 TRex-CHO cells were seeded in a 6-well plate. Tetracycline (1 μg/ml) was added to culture medium for 24 hours to induce CB1 expression. On the day of the experiment, cells were serum starved for 2 hours. Cells were then pre-incubated with CB1 antibody (300 nM), AM6545 (CB1 neutral antagonist) and negative control (BRIL binder) for half an hour. […] Surface expression of CB1 was stained with anti-CB1 N-terminus mouse monoclonal antibody from R&D and the mean fluorescence intensity (MFI) was determined using flow cytometry.
The impact of CB1 antibody on receptor internalization was also investigated. […] Cells were harvested and stained with anti-CB1 N-terminus mouse monoclonal antibody (R&D).
On the day of the experiment, cells were serum starved for 2 hours. Cells were then pre-incubated with CB1 antibody (300 nM), AM6545 (CB1 neutral antagonist) and negative control (BRIL binder) for half an hour. […] Surface expression of CB1 was stained with anti-CB1 N-terminus mouse monoclonal antibody from R&D and the mean fluorescence intensity (MFI) was determined using flow cytometry (Guava).
For the molecule B2, the “CB1 receptor internalization induced by the substance alone” value (from here on “CB1 receptor internalization induced”) is reported as “do not induce”.

In the case of B3, the “CB1 receptor internalization induced” value was “do not induce”. Still for that read-out and setting: then B4, with “do not induce”. In the case of B5, the “CB1 receptor internalization induced” value is on record as “do not induce”. On to B6, for which the “CB1 receptor internalization induced” value is “do not induce”.

For the molecule B7, the “CB1 receptor internalization induced” value was “do not induce”. As for B8, the “CB1 receptor internalization induced” value was “do not induce”.

Turning to B9, the “CB1 receptor internalization induced” value is recorded as “do not induce”.

Turning to B10, the “CB1 receptor internalization induced” value is reported as “do not induce”.

Staying with this experiment, now noted: antibody 300 nM pre-treatment, 1 μM WIN55,212 1 hour.
For `Cc1c(C(=O)NN2CCS(=O)(=O)CC2)nn(-c2ccc(Cl)cc2Cl)c1-c1ccc(C#CCCC#N)cc1` [AM6545, reference compound], the “effect on WIN55,212 induced CB1 receptor internalization” value is reported as “blocked”. On the same count and under the same terms, to B2 belongs “do not block”; to B3, “do not block”.

On to B4, for which the “effect on WIN55,212 induced CB1 receptor internalization” value was “do not block”. The same measure, in the same setting: to B5 belongs “do not block”; to B6, “do not block”. In the case of B7, the “effect on WIN55,212 induced CB1 receptor internalization” value is reported as “do not block”. Take B8: the “effect on WIN55,212 induced CB1 receptor internalization” value is given as “do not block”.

B9: the “effect on WIN55,212 induced CB1 receptor internalization” value was “do not block”. With B10, the “effect on WIN55,212 induced CB1 receptor internalization” value is “do not block”.
